Measurements as given in a protein production outcome set (Wang et al. 2014).

experiment: label from the status in PepcDB records

Row | Sequence | protein production
1 | MLPSRKTKRVFSCDFTPGRKRRRCVVVPSSVSPVPENTTGADLLDSIPDDLVISILCKLGSTSRCPADFINVLLTCKRLKGLAMNPIVLSRLSPKAIAVKAHNWSEYSHRFLKRCVDAGSLEACYTLGMIRFYCLQNRGNGASLMAKAAISSHAPALYSLAVIQFNGSGGSKNDKDLRAGVALCARAAFLGHVDALRELGHCLQDGYGVPQNVSEGRRFLVQANARELAAVLSSGIQARSTWLSLSQPPPPVVPNHGQQTCPLLSDFGCNVPAPETHPANRFLADWFAVRGGDCPGDGLRLCSHAGCGRPETRKHEFRRCSVCGVVNYCSRACQALDWKLRHKMDCAPVQRWLEEGDGGEGNVQIDGNGNGDNVLLPMS | failed
2 | MLPVLETTAHSPLTIVWFVLITVLWVGFFFLEGFDFGVAMLLPFLGRDDKDRRLMVNTIGPTWDGNEVWLLTAGGATFAAFPGWYATMFSGLYLPLLLVLLGLIVRGVAFEYRSKNPSSSWRNAFDWMATIGSFLPTLVLGVGFANFVRGLAVGPHSTPDGGTAPLVTTSFWGLFTPFALIGGILFVVLFCAHGANFVALKTMGDMHDRARKTSAKLGWIATVVALVWALMFNIMYVTRDGRQVLTWIICLLVVVLLAAGSAVVAKGREGLAFLCTALGIALMIVACMFAMYGNLGYRPSGIAFDMWIASATGRTLKIMTISACVFVPIVLAYQVWSYWVFRKRLTREAIPDTAVAA | failed
3 | MLQHRCPVRRILVHYIAHWSRLRSILPTFAAIVRRPFRVCKTMNQPSSKPTPAVTFRLSKAELVLVFITMLWGGTFLLVHNVMTVSGPMFFVGLRFAAAALFVGVVSARALPGLTFTELKAGMLIGVSIMLGYGLQTMGLQTISSSQSAFITALYVPFVPLLQWLVLGRRPGLMPSMGICLAFIGLMLLAGPEGGSLRFSEGELVTLISAVAIAGEIILISRYAGQVDVRRVTVVQLATASLLAFLMIVPTQERIPDFSWLLLASAVGLGAMSAVIQVAMNWAQKSVSPTRATLIYAGEPVWAGIVGRLAGERLPGVALLGGLLIVVAVVVSELKVRRPRETVETRDVQNPGERQAGL | failed
4 | MLQIIVPMAGAGSRFAVAGYTDPKPLIPVHGVPMIKVVIDNLTPDCPHRFIFICQAEQVAAYGLREKLNAWAPGCGIVELGGLTGGAACTVYAARHLINYDQQVMIANSDQYVDVDINAYLHAMNECDAAGLIMTMKASDPKWSFVGFDSQGHINRVVEKEVISDEATVGIYNFRSGGQLVSAIEAMVLKDLRVNGEFYVAPAYNELIEQGAKVIHYSIGAEGHGMYGLGIPVDLNLFLSLPLSRQAASGVGNLEHHHHHH | failed
5 | MLQKDPCLDDILENSEKLENNSNKKNIDSIDTIKLSDIIEKMIEINSIVRIEKIFEEKIVSQNPVVNVVVNDGSARGLLSLWSEQISLLNELNEGDAILIENAHAPKKYKDRIHLALSKSGKISKIESDLPTIDELLKKSSAQRNDFSRKSISELKEGIGAELRGLIVAIHSKEPYFPVCDKCNKKMTLKKGYAVCKCGNKVDEEDENLKWLFLCTCTLDDGSGTIRVTLNNNTNYLDLEELKKIIIDDEEILDVLNNKLLGLDILTSGFTIYDEYLKDTAFRCNNWNKIDIMEEFNKKLKGLEHHHHHH | not failed
6 | MLQLDHRHSIELHFAIPVSLPGCLSGAEVVADWPLDARSSGRQTSVSEAAGAGPVDRMNKEHYPFRMFLLGPFALVDAGGRSVAPKSKKAQALLAMLALSTRGSRSRIWLRDKLWSDRSDDQAAASLRQALLDIHKSLGPARDLLIADKNTVWLDTDRLLLDTDLMIRTERSPDQVTDELLEGIDIRDPEFEDWLALERQNWYRRLDEGQVHDVFEPRQQPSRDIAKHSALLPLTGAPDTSRTGKPVDIASSGPYGRRVGGDWQWMMALQSPIVVGAGEGGQIAATRFQNLIAKAIIDGLGFGVTDLSFTLPHIEENEQQISLPICLQLRLTFDGDMVLIELVMKHLINNRIHWLGSQAINRTQFERGEFGIAAALISQAVDQLAYFQEIQATDSRLSQDGLLIDAVNAIFRLSRDDLDNAERRLEEQIQYQPRSSTFAWLSFIRTFQVGQRFNALDAHLIEEAQAYARKALELDPQNSVSLALVGHVHSFLFGEYDYAANLFEKSIRLNPALPLGWDLYAMLHCYAGQPDKAVAMARWVQELGVYSPHKYYFDTTKCIAAALAGDHAAAITAGEEALRARPNFNSLLRYLASSHAHSNDLGSARHYLQRLEAVEGGFSINDFRGSGYPLLDTGGGQILIDGLLKAGAKLR | failed
7 | MLQSKVFKYSRWDIACCLVIPFQISVYALLAYYYQSMSLLALLGMIPVLFALSLQNAGANHNHYHTPFFRIRWMNTLTRMGFSATEAPKTPYNIGHGIHHATHQSWNDKSILAVLGLKRSIAQQLISFGLFIFESLGVKYFTLLVLLKYWPIERVAVLASPEDPVLAARALKKLLEPAKLKAAKYDLAAWFLFRLVLCVVDWQFFFFYFIPVTYLIDTLRQGENYFQHWGATDPNDPKRDSVSCYSTLYNLLTFNLGYHQEHHYKPGLHWLKLPELTKELPSDRHTVPYSHYLNSPLMFPERASQLRKENVADVSP | failed
8 | MLQTINKTLGKIMPLLTPLSVVSGVLLADYLNGLASLVPWIFAFMTFAGSLGANFQSLKTAVAHPLPMFLALFVLHIFMPVLAWSTGHLVFSGDSLTITGLTLGVVIPTGITSMIWAAMYKGNIGLTLSIILVDTILSPFIVPFSLSILAGAHVEMDVIGMMKGLVGMIVIPSLLGMLVNQFSTPERTVRLSANCAPFSKVGLAAVVAINSSVVAPYLKNVDLKFLTIAVTVFLVAFTGYLTAWLIGRLMKRPQEEIVALIFTGGMRNISAGAVLATSFFPPQVAVPVVIGMLFQQILAALFGHLLARSELKKAHHLDKKTSLPS | failed
9 | MLRKKHFSWMLVILILIAVLSFIKLPYYITKPGEATELASLIKVEGGYPEKGSLSLMTVKVGPANPFTYVWAKMHPYYEIVPDESIKEEGESDKEYMKRQLQMMKSSQENAVIAAYQKAGKKVSYSFNGIYASSVVENMPAKGKIEVGDKIISADGKNYQSAEKLIDYISSKKAGDKVTLKIEREEKEKRVTLTLKQFPDEPDRAGIGVSLYTDRNVKVEPDIDFEIENIGGPSAGLMMSLEIYNQLTKPDETKGYDIAGTGTIDVDGKVGPIGGIDQKVVAADKAGKDIFFAPNQNGASNSDYKNAVKTAKDIDSNMKIVPVDTMQDAIDYLNKLKAKQPDSQVLFLYI | failed
10 | MLRLVKTRPSLRLGPSETAVIRVLDQERIDRINQDLTRAWKADVETTCVLSGILLLPCLILICLLDGPLFAKVILCTFLCLMVGGWCIAKWLNAQAQPRTDITGVKVEQLEGYFDRRWVRNGGKPYIEYSFGKHWLHIQTSACSFFSGDTQLKLNRRYRVDALYLTGHSSAYTGYYLLEETFKEIFDDSDLSAAEKIQIAEREKRINQDLEEQHKRLYRLYRNPQGELEAVAIGFNFAACFLTVLWSFCVSLYWVTGLTLAALGLILLIPDTGAGHPWFALGWLLSAGVFGACGNLWRERQVLSKGFVQVDALLSCNPDQAKVQYKRKVEEAAPGFGQ | failed
11 | MLRNNLGNSSDSKNEDGSVFSQTEHNIVATYLIMAGMISIISNIIVLGIFIKYKELRTPTNAIIINLAVTDIGVSSIGYPMSAASDLYGSWKFGYAGCQVYAGLNIFFGMASIGLLTVVAVDRYLTICLPDVGRRMTTNTYIGLILGAWINGLFWALMPIIGWASYAPDPTGATCTINWRKNDRSFVSYTMTVIAINFIVPLTVMFYCYYHVTLSIKHHTTSDCTESLNRDWSDQIDVTKMSVIMICMFLVAWSPYSIVCLWASFGDPKKIPPPMAIIAPLFAKSSTFYNPCIYVVANKKFRRAMLAMFKCQTHQTMPVTSILPMDVSQNPLASGRI | failed
12 | MLRSCARRLRTLGALCQPPPVGRRLPGSEPQPALRSFSSEEVILKDYSVPNPSWNKDLRLLFDQFMKKCEDGSWKRLPSYKRTPTERIQDFKTHFLDPKLMKEEQVSQAQLFTRSFDDGLGFEYVMFYNDVEKRMVCLFQGVPYLEGPPGLIHGGAIATMIDATVGMCAMMAGGIVMTANLNISCKRPIPLCSVVRINSQLDKVEGKKFFVSSNVQSVDEKTLYSEATSLLIKLNPAKSLT | failed
13 | MLRSLDIRDMLIIDRLSLAFQPGLNVLTGETGAGKSILLDSLGFVLGWRGRAELVRAGADKGEVTAVFDLPPGHAARAVLDEAGIEAEDELILRRVNFADGRKTAWVNDRRVSGEVLRGLSDRLVELHGQHDDRGLLNPRGHRQMLDTFAGLDLSACRRAWTALGTARRTLLAAEEALAAVRAEEDFLRHAVAELDKLDPQPGEEALLDTRRREMQGAEKIRDDIARAHRALSAEGAETLLVD | failed
14 | MLRTEHYAFLPCISRALEERDSLGIRRELRARQQRLSMQQSRSKLGRVCVTGANSPLGQELVGALTRTPDPSLRPDAIGVIGARDPIESHSAGAGLHFPGPGVDFLECAATDLEHYNPRTLFSINDDDLGLRRRSIFRENQVVIDLLRAQGETNEPRSKTRLVLVTLLGCGDSEDAIPSQAFDVLRPLLLELSRVEQYVRESGLPYTIVRPGALEHGDADSRAIVSESKVGFGTIHRSTLAHLLLNVAASEKAVNKTLMALDMNRLLVAAPYVRPFEVWESPPFEVFDL | not failed
15 | MLRTFVLMFFTSLSFIVAYYITFSPLILAEFSHALIDFLTIAFSIIAIKFIGENEVAEGRFSYGLHRLEVVVAMINLIIIILLSLAVAYTSVTSLFKETTNDSFTLIVSSALASFLTYFASPKERNDLGKKGLYMHILSDFLGYIMGFIIGILIFISGIRELDPVGAIILVILNFALSIPLLKEAFLIFMEGSSVKIDHIMEELTKISPSVHHLHVWSICDHVKVATLHVKVSPNLTIAEADKIRGSICDFLKEKYGISHVTVQFETNVDD | failed
16 | MLRYSLLVLLGACSYGILAIFVKLAYAEGFSLGEVIGSQYLFGWIILLAITLLFSRHRVPLKQALLLFVAGTSASFTGIFYYASLKTVPASIAIILLFQFVWVGIIIEAVATKTLPSREKVISVIFLLVGTFLSSGLLEQSAGAFDTTGIILGLLSAVTFATYIFVSGKVAVEVPSLPRGVLLMTGALTLVMIVFPPTFIFNGAISQGLWKYGLGLGTFSIVIPSIAFTIGIPKIGSGLATILGAAELPVTTIMSVFVLKEAVLSSQWFGVSLILIGIAIPQIAYAMRGRYRKHHTHKKVAA | failed
17 | MLSAYFSGSETGLLSLNKYRLRFLSEQGNKGAKKAEKLLEKPDTLLSFILIFNNLVNISASAIATVIGMRLYGDAGVAIATGLLTFVMLVFSEIFPKTVAAMHAEKVSFFSSHILTSLLKIFYPLVWLMNIFTKSLMQIVGLKLDMQKQVISSEELRSIVSEAGEATPNEQHPQMLLSILDMETVTVDDIMVPRNEIGGINIDDDWRAIMRQLNHAAHNRVVLYKGSLDEQVLGILRVREAFRLLLEKNEFTKETLIRAADEVYFIPESTPLKTQLANFRTNKERIGLVVDEYGDIKGLVTLEDILEEIVGDFTTSTAPSIDKEVIQQSDGSMIIDGSANLRDLNKMFNWELDTEDARTFNGLILEHLEEIPDEGTICEIDGLLITILEVGDNMIKQAKVVKL | not failed
18 | MLSELAKQFSTQIQTFFYLIMLINGLLHFIFAGAVARDAGNLYRLGQKPVLVSAPTWAFATLIGGVITATIYWLLHHSTLTRPTMREIRYDKA | failed
19 | MLSFIAVGLLARLAVARGEVKYGCTKHELRRLSRRGRLLLVVLWPLVAAFLLAIFPNVPSRNIFGDLILIIAAVLPAALLAFLVNAMLERTRFKVVPRRSPKAHSR | failed
20 | MLSFIIKRILWAIPTLFGVSIIVFMMVHLVPGDPALVILGEKANQAAIDALREQFGLNKPLIEQYFFFINNVLHGNFGTSIMTGEPVMHEFWQRFPATVELALIALFMALVLGISVGVLAAIKRYSVFDYSSMTFALAGISMPVFWLGLMLIYIFSVQLGWLPVFGRLSDVYYLDGPTGLYLIDSLIARDYGAFMDTIKHLILPSIVLATVSTAVIARMTRASMAEVSKEDYVRTAKAKGCSSFRVIFVHTLRNALIPVTTIAGLMLAGLLGGSMITETVFSWPGIGKWIVNALNQRDFPIIQSMSLIIAMMYIGANLLVDILYAFIDPRIRLS | failed
